Results reported in the RNAGym collection of RNA variant scans (doi:10.1073/pnas.2313332121).
Variants at the floor of the assay were thinned out.

B1: TPR 5TU (parent)
chain: GGAUCUUCUCGAUCUAACAAAAAAGACAAAUCUGCCACAAAGCUUGAGAGCAUCUUCGGAUGCAGAGGCGGCAGCCUUCGGUGGCGCGAUAGCGCCAACGUUCUCAACUAUGACACGCAAAACGCGUGCUCCGUUGAAUGGAGUUUAUCAUG

Variants of: B1
Assay: polymerase ribozyme fitness, log enrichment relative to wild type (log ratio); higher = more active; in vitro selection for triplet polymerase activity
Outline: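 Fitness measures genotype enrichment against wild-type enrichment on a logarithmic scale, with inverse-variance-weighted averaging of replicates. The logarithm is base 2, and genotypes were kept only with ≥10 input reads and ≥1 read per output in Illumina sequencing. The sequenced libraries came from one triplicate in vitro selection round, including frozen incubation at −7 °C, of PCR-built, transcribed mutant libraries of each subunit of a heterodimeric triplet polymerase ribozyme.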

Variant | polymerase ribozyme fitness (log ratio)
A98G A120G | -0.401
G11A A113U | -2.69
U53A C75U | -1.34
G94C U101C | -0.185
C35A C76A C93A U148C | ≤ -4.2
A22U G46A C79G G80U G92A A150C | ≤ -4.2
U61C A64G | ≤ -4.2
G68A C87U C114A U144C | -4.11
G80A U144G | 1.27
U6G C69U G84A A106C | -2.47
A28G U55A | -2.49
C5U G84U U148G | ≤ -4.2
C75G C85U A106C A115G G141U | ≤ -4.2
A17U G84U | -1.75
C85A G124C | -1.69
C99U A119C C125G U134G | -3.27
U53G U55A C79U G86A G88A C103U U148C | ≤ -4.2
A23G G50C G86C A89G G92U A97U G141C | ≤ -4.2
A47C C54U G83U A142G | -2.18
C18G C114G A122G | -3.64
C38U G94U | -0.0168
A39G G42C A47C A91U C93U U101G A119U C125U G133U G136A | ≤ -4.2
G34A A91G | -3.57
A49U C54G U55A G59A A60G U90G A106U G124C | ≤ -4.2

Variant | polymerase ribozyme fitness (log ratio)
A22G A24U C63G | 2.39
A26U G65A A66U U77C C96U A106U A107U C132U U139A G143C U148A | ≤ -4.2
A52U A91U A115G C131U | ≤ -4.2
A17G A21G C96G | 0.392
U15G G50C C69U C76A G84U | ≤ -4.2
C87A G88A G117A A119G | ≤ -4.2
A30G C87G U101C A122G | ≤ -4.2
C27G G92C A142U | ≤ -4.2
U55G C72U G136C | -3.74
G83C G136C U146G | -3.41
C76G U78C C93U C103G A137G | ≤ -4.2
C8G A20G U44G G48U G84U G128U U144A | ≤ -4.2
A16C U31C G50A G86A | -3.16
C38G C75U C93G | -4.16
A49C G94C | -4.16
A60U C93U U151G | ≤ -4.2
G59C G80A C93A | -3.86
U78C A142U | -1.72
C36U A142G | -2.16
A26C U44A U55G G86A G88C | ≤ -4.2
C5U A21U | 1.4
G88C G100C A106G U146C | ≤ -4.2
A52G G84A C116G | -2.02
A39U C43U C85U G117U G126C C132G | ≤ -4.2

Variant | polymerase ribozyme fitness (log ratio)
G50C A142U | -3.9
U56A G58U A115G | -0.802
U31G A40G G83C A142G | ≤ -4.2
U7A A23C C36A U56A A91U C132G | -3.78
C51G A64C C69U G80A G86A C96U C114A | ≤ -4.2
A40G C87U C103G | ≤ -4.2
A29U G133C | ≤ -4.2
A21U C105G A113G C116U | -4.07
A47G C87U C99U | -1.24
A3C U7G C87U C93G A98G G100U A120C U148A U151G | ≤ -4.2
C38A C93G C96U A115G G117A | ≤ -4.2
C51A G86A G126A G128U G141A | ≤ -4.2
G25U A26C A49G U61A C76U U104A C114U A119C | ≤ -4.2
A19U A28U A52G C105G G126C G141C U148A C149U A150C | ≤ -4.2
G50C U90C U104G | ≤ -4.2
A52G G84A | -1.03
A22U C32A G42A G48A A52G U148A | ≤ -4.2
A3C C27U C35G C57A G84A C87U | ≤ -4.2
G50U U55G C75A A97G A137U U151A | ≤ -4.2
A12U A17U A28C C43G C103G | ≤ -4.2
A22G C72A G86C C87A A110U U127C C132A U146G | ≤ -4.2
G58C U139C | -3.3
U53A C54A A91U | ≤ -4.2
A20U G81C A147U | -0.168

Variant | polymerase ribozyme fitness (log ratio)
U13A C51U C54A G86U C116U A120G | ≤ -4.2
U33A G92A | ≤ -4.2
U9C A30U C35A U82A A91U C93A G140U G143A U151G | ≤ -4.2
A41C C95U A119G | -0.978
U6G U78A G84U A91C C108A A121C | ≤ -4.2
C10G G68A C79G | ≤ -4.2
A37G C54U U55A G86A A89U U109G A138G | ≤ -4.2
G136U U144G | -3.29
U31A C131A | -1.89
C10A A106G G126U | ≤ -4.2
C132A | -2.06
A23G A64G G81A C108A G124U G143U | ≤ -4.2
C116A U151C | -4.09
C27G U45A G48U A91C | ≤ -4.2
C85U A89G A106G G117A G126C G143C | ≤ -4.2
C14U C85U | -1.65
U56G G84A | -3.48
A17G G84A C93A A98G C129G | ≤ -4.2
G71U G94C A110G | ≤ -4.2
C14A C93U | -2.33
A20U A40U A49C G94A C99A G143A | ≤ -4.2
G84A G136A | -0.313
A40C G84A A97U | -2.32
A26G G92U | -3.31

Variant | polymerase ribozyme fitness (log ratio)
C51A U102A | -1.41
G94U A142U | -1.73
C116U A119U | -0.298
G81C C85U | 0.0549
A30U G68U A73U G140U | ≤ -4.2
C96A U101C U109A C118A | -1.54
C18U C93U | -1.73
U53A C57A C69G A91C | ≤ -4.2
A60G U61A A97G | -1.38
G143C U145G | -1.8
C18G A24C G34A C57A C85U A89U A97G A120G A121U | ≤ -4.2
A16U U61A C95U | -3.06
A16G A23G A37U G86A U135A | ≤ -4.2
A49C G58C A66G C93G A107U A120U | ≤ -4.2
C96G C103U | -0.445
A40C U82C G94U | -0.916
C76U G84A A119U U145G | -2.68
C18G C27U A37G A47C U55A G65U C85U | -4.19
A20C A21G A23C A28U C38A | ≤ -4.2
A21U C79U C93G | ≤ -4.2
U61A C79G U82C C132G | ≤ -4.2
A26C G100U | -4
A20U U31C A41C C51A | -2.21
G34A G50A G68U G71A C76A C85A C125U | ≤ -4.2

Variant | polymerase ribozyme fitness (log ratio)
U31A G86U | -0.886
C35U G117U | 0.973
C32G A37G C95U | -3.7
C87G A89U | ≤ -4.2
C93G C103G | ≤ -4.2
C125U U134G A142C | -3.76
A122U U135C A137G | -3.91
C57U C85A G100U A115G U135A G141C | ≤ -4.2
G59A C118G U130A C132G G140A | ≤ -4.2
A29G U111A | ≤ -4.2
A52C C69G G84U A115C | ≤ -4.2
G59C C96U U146A | 0.268
A49G C105U A113G A115C A147U | ≤ -4.2
C57A A89C G94U A142G | -3.19
A3U A29G A49C G92A G124U G140A | ≤ -4.2
C103G C108G G124C U144A U145G | ≤ -4.2
C75U C79A | ≤ -4.2
U55A A107G | -3.7
G86C U101G G124U G152A | -4.15
C38U A60C U77G C87U G94A U101A C105A | ≤ -4.2
A16G A17C U31A U55G C57G A115C U135A | -3.86
U33G A113C | -4.01
G50A C85G C93A C129G | ≤ -4.2
A40C U55A G88A C108G C118U U130A | ≤ -4.2

Variant | polymerase ribozyme fitness (log ratio)
C79A C93G C95U U127G C131U G143U | ≤ -4.2
U15C A122U | 0.45
A24U A26G A64C G84U A97U A122C | ≤ -4.2
A17U C76U C96U | 0.123
A3C C36G A60C G83U C118G U151C | ≤ -4.2
C8G A29C G34C U78G G86U A97C C149U | ≤ -4.2
A19C C51U A52G G84U A89U G124U G141U | -1.23
G50A A60C G62A C76U C96U G100U C108G | ≤ -4.2
G50C C51U C87U G152U | ≤ -4.2
C54G C57U C75A A97U G141C U145G | ≤ -4.2
U7A G94A | -3.07
C85U A115G | -2.3
U53A G92U C103A | -2.78
C38U G81C U111G A138G | ≤ -4.2
A3U A47C C93U C118U | -2.05
A24U A41G U53G G124C C131U | -1.4
A49G G81C A91G A98U | -2.95
C57U C87U A113C A119G | -3.09
C85A C125A | -2.27
A39U C95U C96A G124A | -3.2
A12C A20U U61A G92U C131A | ≤ -4.2
G68A C93G C129A U130A | ≤ -4.2
C85A G94C A121C | -1.84
